Experiments:
[1] = target: human lactate dehydrogenase (hLDH) (human, UniProt P00338 1-332); test: ELASA sandwich
[2] = target: Plasmodium falciparum lactate dehydrogenase (PfLDH) (Plasmodium falciparum, UniProt Q76NM3 1-316); test: ELASA sandwich

Binder: CTGGGCGGTAGAACCATAGTGACCCAGCCGTCTAC (ssDNA) [2008s aptamer, 3'-biotin]
- binding result [1]: no binding
- binding result [2]: binds

— article PMC9562052
